Series [1] in a line: In vitro phenylethanol dehydrogenase activity of E. coli expressed petunia homolog. Format: biochemical. The note with it: E. coli expressed protein. An excerpt:
FIGS. 14A-14B show the nucleotide (SEQ ID NO: 10) and amino acid sequence (SEQ ID NO: 11) of a petunia homolog of the tomato phenylethanol dehydrogenase.

For the next series, the system named is phenylalanine. Description: Phenylalanine decarboxylase expression in E. coli: phenethylamine production in media containing phenylalanine, GC. It is filed as cell-based. The note with it: grown in the presence of phenylalanine, confirmed by GC-MS. An excerpt: The full-length aromatic amino acid decarboxylase cDNAs were cloned by sequencing putative clones from the TIGR database. Following sequence analysis the full-length coding sequence was obtained by PCR, and cloned into vector pENTR/D-TOPO. The coding region was then cloned into vector pDEST15 containing a GST tag (Invitrogen) by recombination, and transformed into E. coli strain […] (Invitrogen) for inducible protein expression. Production of the recombinant protein was confirmed by protein blotting with anti-GST antibodies. Enzyme activity was determined by growing E. coli strains expressing the aromatic amino acid decarboxylases in media containing 19.4 mM phenylalanine. Volatile compounds were extracted from the cultures using an equal volume of hexanes. Extracts were concentrated and analyzed by gas chromatography on an Agilent DB-5 column on an Agilent 6890N gas chromatograph. Identification of phenethylamine was confirmed by GC-mass spectrometry as described by Schmelz et al. (2001).
The coding regions of the full-length aromatic amino acid decarboxylases were cloned in vector pDEST15 with a GST tag and transformed into E. coli BL21-SI cells for inducible expression. The production of recombinant proteins in E. coli was confirmed by Western blotting with an anti-GST antibody. […] Volatile compounds were extracted from these cultures and analyzed by gas chromatography. […]

“Also recorded” adds a separate entry of the source.

B1: petunia homolog of the tomato phenylethanol dehydrogenase: petunia 2-phenylethanol dehydrogenase, SEQ ID NO: 11, encoded by SEQ ID NO: 10 (protein, listed as Lycopersicon esculentum)
chain: MSSVAATKTVCVTGASGYIASWLVNFLLQRGYTVKASVRDPNDPKKTQHLISLGGAKERLHLFKANLLEEGSFDAVVDGCEGVFHTASPFYYSVTDPQAELLDPAVKGTLNLLGSCAKAPSVKRVVLTSSIAAVAYSGEPRTPEVVVDESWWTSPDYCREKQLWYVLSKTLAEDAAWKFVKEKGIDMVAINPAMVIGPLLQPTLNTSSAAVLNLVNGAETYPNATFGWVNVKDVANAHILAFENPSANGRYLMVERVAHYSDILKILRELYPTMRLPEKCADDNPLMQNYQVSKERAKSLGVEFTPLEESIKETVESLKEKKFFGGSSAM
For the molecule B1, the “Phenylethanol dehydrogenase activity in vitro” value in series [1] is reported as “exhibits phenylethanol dehydrogenase activity”.

B2: cLEC73K23: tomato phenylalanine decarboxylase cLEC73K23, SEQ ID NO: 7, encoded by SEQ ID NO: 6 (protein, listed as Lycopersicon esculentum)
chain: MGSLSLEMDFEPSPMTPRSLAAMTPRSLARRRLFPNVDNKKQKMAQPGAGPRKNLELEVMEPALKNDGPSLDTILVNYLDTLTQRVNYHLGYPVNICYDHYATLAPLLQFHLNNCGDPFLQNTVDFHSKDFEVAVLNWFAKLWEIEKDQYWGYVTNGGTEGNLHGILLGRELLPEGILYASKDSHYSVFKAARMYRMDSETINTSVNGEMDYSDLRAKLLQNKDKPAIINVTIGTTFKGAIDDLDVILEILKECGYSQDRFYIHCDAALCGLMTPFINNMISFKKPIGSVTISGHKFLGCPMPCGVQITRKSYINNLSTNVEYIASVDATISGSRNGLTPIFLWYSLSAKGQVGLQKDVKRCLDNAKYLKDRLQQAGISVMLNELSIIVVLERPRDHEFVRRWQLSCVKDMAHVIVMPGITREMLDNFMSELVQQRKVWYQNGKTDPPCVGEDIGAQNCACSYHKIDYICP
As to B2, in the series on phenylalanine, the “Production of phenethylamine by E. coli cultures expressing the decarboxylase” value is “produced a compound with the same retention time as phenethylamine; also recorded: produce phenethylamine”.

B3: cLEC75E21: tomato phenylalanine decarboxylase cLEC75E21, SEQ ID NO: 5, encoded by SEQ ID NO: 4 (protein, listed as Lycopersicon esculentum)
chain: MGSLSFEKDFEPSAITPRGLAPPGLIVNGDFGEMMRLKVSSTPTTPRKNLNLSVTEPGKNDGPSLDCTLMNYIDTLTQRINYHIGYPVNICYEHYANLAPLLQFHLNNCGDPFLQNTVDFHSKDFEVAVLNWFADLWEIERDQYWGYVTNGGTEGNLHGILVGRELFPDGILYASKDSHYSVAKAAMMYRMDFENINASINGEIDYSDLKVKLLQNKGKPAIINVTIGTTFKGAVDDLDVILQILEECGYTRDQFYIHCDAALNGLIIPFIKNMITFKKPIGSVTISGHKFLGCPMPCGVQITRKSYINNLSRRVEYIASVDATISGSRNGLTPIFLWYSISAKGQIGFQKDVKRCFDNAKYLKDRLQQAGISVMLNELSIIVVLERPRDHEFVRRWQLSCVRDMAHVIVMPGITRETLDGFINDLLQQRKKWYQDGRISPPCVANDIGAQNCACSYHKIDYIIA
B3: the “Production of phenethylamine by E. coli cultures expressing the decarboxylase” value in the series on phenylalanine is reported as “produced a compound with the same retention time as phenethylamine; also recorded: produce phenethylamine”.

These data come from patent US8709811B2, “Materials and methods for synthesis of a flavor and aroma volatile in plants” (University of Florida Research Foundation, Inc., priority 2003, dated 2014).
